In US20240124536A1, “BASE EDITING OF TRANSTHYRETIN GENE” (Beam Therapeutics Inc., priority 2021, published 2024):
Strand notation (5' to 3'): a small letter for the sugar, then the base; units joined by * are phosphorothioate-linked, units joined directly phosphodiester-linked; [ ] holds rarer units or linkages, { } end groups; capitals alone tell only the bases. m = 2'-O-methyl; r = 2'-OH (RNA)

Assays:
human TTR gene = assay: Editing activity in human primary hepatocytes (gRNA + ABE8.8 mRNA co-transfection, NGS of PCR amplicons); assay type: cell-based; conditions: for Human hepatocytes - Editing %, 625, rep 1 / Human hepatocytes - Editing %, 625, rep 2: 625 ng/RNA/mL; for Human hepatocytes - Editing %, 1250, rep 1 / Human hepatocytes - Editing %, 1250, rep 2: 1250 ng/RNA/mL; for Human hepatocytes - Editing %, 2500, rep 1 / Human hepatocytes - Editing %, 2500, rep 2: 2500 ng/RNA/mL; for editing activity in human primary hepatocytes (in words): ABE8.8 mRNA co-transfection
Excerpt: With this example, gRNA sequences were identified that permit ABE8.8 (and other ABE variants containing Streptococcus pyogenes Cas9, such as ABE7.10, or another Cas protein that can use the NGG PAM) to either: 1) disrupt the start codon, or 2) disrupt splice sites, whether donors or acceptors, via A→G editing within its editing window (roughly positions 4 to 7 in the 20-nt protospacer region of DNA). Five sequences were identified throughout the human TTR gene (Table 1). gRNAs were synthesized matching each of the protospacer sequences and otherwise conforming to the standard 100-nt Streptococcus pyogenes CRISPR gRNA sequence, with each gRNA molecule having a minimal degree of chemical modifications (specified in Table 1).
(§1) The mRNA, and corresponding amino acid, sequence of the ABE8.8 (MA004) used in shown below in Table 11. Three days after transfection, genomic DNA was harvested from the hepatocytes, and assessed for base editing with next-generation sequencing of PCR amplicons generated around the target splice site. […] See FIGS. 5A-5C, FIG. 6, and Tables 2-3.

[1] = system: cynomolgus monkey TTR gene; assay: Editing activity in cyno primary hepatocytes (gRNA + ABE8.8 mRNA transfection, NGS); assay type: cell-based; conditions: for Cyno hepatocytes - Editing %, 156.25: 156.25 ng/RNA/mL; for Cyno hepatocytes - Editing %, 312.5: 312.5 ng/RNA/mL; for Cyno hepatocytes - Editing %, 625: 625 ng/RNA/mL; for Cyno hepatocytes - Editing %, 1250: 1250 ng/RNA/mL; for Cyno hepatocytes - Editing %, 2500: 2500 ng/RNA/mL; for Cyno hepatocytes - Editing %, 5000: 5000 ng/RNA/mL; for editing activity in cynomolgus primary hepatocytes (in words): ABE8.8 mRNA co-transfection
Excerpt: as §1

TTR on-target site = assay: Off-target validation in human primary hepatocytes: editing at the on-target site; assay type: cell-based; conditions: for on-target site editing efficiency (in words): treated vs control, human primary hepatocytes
Experimental: (§2) Several candidate off-target sites were analyzed for off-target editing in human primary hepatocytes.

[2] = system: potential off-target candidate sites
Experimental: With a view towards establishing the safety of a base-editing therapy knocking down of TTR in the human liver in vivo, off-target mutagenesis analysis is assessed in primary human hepatocytes. […] The in vitro biochemical assay ONE-seq was used to generate a list of candidate off-target sites and to determine the propensity of a ribonucleoprotein comprising the ABE8.8 base editor protein and each of the three protospacer guides sequences (GA457, GA460, and GA461) to cleave oligonucleotides in a library.
For human ONE-seq libraries, the reference human genome (GRCh38, Ensembl v98, chromosomes ftp://ftp.ensembl.org/pub/release-98/fasta/homo_sapiens/dna/Homo_sapiens.GRCh38.dna.chromosome.{1-22,X,Y,MT}.fa and ftp://ftp.ensembl.org/pub/release-98/fasta/homo_sapiens/dna/Homo_sapiens.GRCh38.dna.nonchromosomal.fa), was searched for potential off-target sites with up to 6 mismatches to the protospacer sequence above, and sites with up to 4 mismatches plus up to 2 DNA or RNA bulges, using Cas-Designer v1.2 (http://www.rgenome.net/cas-designer/).
For each site, the total number of edited reads was normalized to the total number of edited reads assigned to the on-target site, and this ratio defines the ONE-seq score for the site. Sites were ranked by ONE-seq score, and those with a score equal to or larger than 0.001, were selected for validation. A score equal to or larger than 0.001 encompasses sites that have down to 1000-fold less editing activity in the biochemical assay compared to editing of the on-target site. This threshold is based on the premise that in cells, if there is 10000 on-target editing, 1/1000-fold less editing activity would translate to % 0.1% off-target editing, which falls below the lower limit of detection of editing by NGS.
as §2

Row | Molecule | Human hepatocytes - Editing %, 625, rep 1 (human TTR gene) [%] | Human hepatocytes - Editing %, 625, rep 2 (human TTR gene) [%] | Human hepatocytes - Editing %, 1250, rep 1 (human TTR gene) [%] | Human hepatocytes - Editing %, 1250, rep 2 (human TTR gene) [%] | Human hepatocytes - Editing %, 2500, rep 1 (human TTR gene) [%] | Human hepatocytes - Editing %, 2500, rep 2 (human TTR gene) [%] | editing activity in human primary hepatocytes (in words) (human TTR gene) | Cyno hepatocytes - Editing %, 156.25 [1] [%] | Cyno hepatocytes - Editing %, 312.5 [1] [%] | Cyno hepatocytes - Editing %, 625 [1] [%] | Cyno hepatocytes - Editing %, 1250 [1] [%] | Cyno hepatocytes - Editing %, 2500 [1] [%] | Cyno hepatocytes - Editing %, 5000 [1] [%] | editing activity in cynomolgus primary hepatocytes (in words) [1] | on-target site editing efficiency (in words) (TTR on-target site) | off-target editing at candidate off-target sites (in words) [2] | other results
1 | GA460: Human/Cyno TTR guide RNA, spacer UAUAGGAAAACCAGUGAGUC, gRNA SEQ ID NO: 14 (nucleic acid, chemistry not given here) guide: TATAGGAAAACCAGTGAGTCGTTTTAGAGCTAGAAATAGCAAGTTAAAATAAGGCTAGTCCGTTATCAACTTGAAAAAGTGGCACCGAGTCGGTGCTTTT | 23.77 | 22.27 | 38.33 | 35.8 | 47.61 | 47.79 | high editing activity | 1.62 | 11.22 | 18.44 | 31.71 | 38.25 | 40.16 | high editing activity | high editing efficiency | little to no off-target editing | SUM Editing % - Human Primary Hepatocytes, Treat rep 1 (TTR on-target site; On-target TATAGGAAAACCAGTGAGTC): 76.4%; SUM Editing % - Human Primary Hepatocytes, Treat rep 2 (TTR on-target site; On-target TATAGGAAAACCAGTGAGTC): 74.3%
2 | GA457: Human TTR guide RNA, spacer GCCAUCCUGCCAAGAAUGAG, gRNA SEQ ID NO: 11 (nucleic acid, chemistry not given here) guide: GCCATCCTGCCAAGAATGAGGTTTTAGAGCTAGAAATAGCAAGTTAAAATAAGGCTAGTCCGTTATCAACTTGAAAAAGTGGCACCGAGTCGGTGCTTTT | 17.24 | 15.39 | 26.49 | 24.86 | 33.96 | 31.31 | high editing activity | – | – | – | – | – | – | – | high editing efficiency | little to no editing | % Editing - human primary hepatocytes, Net (TTR on-target site; On-target GCCATCCTGCCAAGAATGAG): 54.1%; % Editing - human primary hepatocytes, Treated (TTR on-target site; On-target GCCATCCTGCCAAGAATGAG): 54.21%; net editing at all off-target sites ([2]; 47 candidate off-target sites, human primary hepatocytes): less than 0.40
3 | GA458: Cyno TTR guide RNA, cynomolgus equivalent of GA457, spacer GCCAUCCUGCCAAGAACGAG, gRNA SEQ ID NO: 29 (nucleic acid) guide: mG*mC*mC*rArUrCrCrUrGrCrCrArArGrArArCrGrArGrGrUrUrUrUrArGrArGrCrUrArGrArArArUrArGrCrArArGrUrUrArArArArUrArArGrGrCrUrArGrUrCrCrGrUrUrArUrCrArArCrUrUrGrArArArArArGrUrGrGrCrArCrCrGrArGrUrCrGrGrUrGrCrU*mU*mU*mU | – | – | – | – | – | – | – | 6.06 | 10.65 | 16.07 | 22.74 | 27.25 | 35.91 | high editing activity | – | – | –
4 | GA459: Human TTR guide RNA, spacer GCAACUUACCCAGAGGCAAA, gRNA SEQ ID NO: 13 (nucleic acid, chemistry not given here) guide: GCAACTTACCCAGAGGCAAAGTTTTAGAGCTAGAAATAGCAAGTTAAAATAAGGCTAGTCCGTTATCAACTTGAAAAAGTGGCACCGAGTCGGTGCTTTT | 3.79 | 3.89 | 5.46 | 6.15 | 8.5 | 8.69 | – | – | – | – | – | – | – | – | high editing efficiency | little to no off-target editing | SUM Editing % - Human Primary Hepatocytes, Treat rep 1 (TTR on-target site; On-target GCAACTTACCCAGAGGCAAA): 14.17%; SUM Editing % - Human Primary Hepatocytes, Treat rep 2 (TTR on-target site; On-target GCAACTTACCCAGAGGCAAA): 14.29%
5 | GA461: Human/Cyno TTR guide RNA, spacer UACUCACCUCUGCAUGCUCA, gRNA SEQ ID NO: 15 (nucleic acid, chemistry not given here) guide: TACTCACCTCTGCATGCTCAGTTTTAGAGCTAGAAATAGCAAGTTAAAATAAGGCTAGTCCGTTATCAACTTGAAAAAGTGGCACCGAGTCGGTGCTTTT | 21.81 | 22.31 | 32.82 | 32.38 | 40.42 | 39.43 | high editing activity | 0.07 | 7.45 | 13.16 | 19.46 | 29.8 | 37.53 | high editing activity | high editing efficiency | little to no off-target editing | SUM Editing % - Human Primary Hepatocytes, Treat rep 2 (TTR on-target site; On-target TACTCACCTCTGCATGCTCA): 58.9%
